Patent CN105542007A (UNIV NANCHANG, dated 2016)

Legend:
[1] = target: T1, 重组表达的PSMA胞外区蛋白 (recombinant extracellular domain of prostate-specific membrane antigen, expressed in HEK-293) (UniProt Q04609 44-750, limits assumed); assay: indirect phage-ELISA, PSMA extracellular domain coated at 5 μg/mL, HRP-anti-M13 detection
T1 construct: extracellular domain; Cloned into pRAG2a via NotI/BamHI, secreted from HEK-293 cells and purified with HisTrap; also called 前列腺特异性膜抗原膜外区; PSMA蛋白; not shown: His tag (purified with HisTrap, detected with anti-His antibody)
T1 sequence (Q04609 44-750 limits assumed): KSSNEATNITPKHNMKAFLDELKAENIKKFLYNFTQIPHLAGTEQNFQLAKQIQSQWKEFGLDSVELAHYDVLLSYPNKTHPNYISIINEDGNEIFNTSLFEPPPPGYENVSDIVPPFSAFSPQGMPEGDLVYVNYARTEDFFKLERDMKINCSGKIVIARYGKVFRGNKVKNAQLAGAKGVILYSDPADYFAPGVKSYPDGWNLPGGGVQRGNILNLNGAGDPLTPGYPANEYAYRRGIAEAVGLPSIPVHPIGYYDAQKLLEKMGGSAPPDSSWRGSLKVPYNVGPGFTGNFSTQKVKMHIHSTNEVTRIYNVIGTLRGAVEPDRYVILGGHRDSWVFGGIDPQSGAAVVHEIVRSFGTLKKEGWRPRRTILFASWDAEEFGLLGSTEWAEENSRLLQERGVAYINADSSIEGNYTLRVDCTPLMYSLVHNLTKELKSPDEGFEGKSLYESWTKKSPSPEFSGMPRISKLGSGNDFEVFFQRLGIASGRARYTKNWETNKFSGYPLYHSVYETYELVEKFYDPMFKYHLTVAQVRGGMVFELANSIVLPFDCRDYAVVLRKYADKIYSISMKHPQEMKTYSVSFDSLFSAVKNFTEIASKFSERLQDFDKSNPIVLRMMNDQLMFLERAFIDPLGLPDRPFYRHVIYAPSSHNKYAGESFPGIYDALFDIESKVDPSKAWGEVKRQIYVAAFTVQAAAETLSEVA

[2] = target: T2, 前列腺特异性膜抗原 (PSMA) on LNCaP prostate cancer cells (UniProt Q04609 1-750, limits assumed); assay: cell ELISA on fixed LNCaP (PSMA+) against MKN45 (PSMA-) cells, HRP-anti-M13 detection, OD450
T2 construct: whole, on cells; Endogenous PSMA on fixed LNCaP cells; also called LNCaP细胞(表达PSMA)
T2 sequence (Q04609 whole entry): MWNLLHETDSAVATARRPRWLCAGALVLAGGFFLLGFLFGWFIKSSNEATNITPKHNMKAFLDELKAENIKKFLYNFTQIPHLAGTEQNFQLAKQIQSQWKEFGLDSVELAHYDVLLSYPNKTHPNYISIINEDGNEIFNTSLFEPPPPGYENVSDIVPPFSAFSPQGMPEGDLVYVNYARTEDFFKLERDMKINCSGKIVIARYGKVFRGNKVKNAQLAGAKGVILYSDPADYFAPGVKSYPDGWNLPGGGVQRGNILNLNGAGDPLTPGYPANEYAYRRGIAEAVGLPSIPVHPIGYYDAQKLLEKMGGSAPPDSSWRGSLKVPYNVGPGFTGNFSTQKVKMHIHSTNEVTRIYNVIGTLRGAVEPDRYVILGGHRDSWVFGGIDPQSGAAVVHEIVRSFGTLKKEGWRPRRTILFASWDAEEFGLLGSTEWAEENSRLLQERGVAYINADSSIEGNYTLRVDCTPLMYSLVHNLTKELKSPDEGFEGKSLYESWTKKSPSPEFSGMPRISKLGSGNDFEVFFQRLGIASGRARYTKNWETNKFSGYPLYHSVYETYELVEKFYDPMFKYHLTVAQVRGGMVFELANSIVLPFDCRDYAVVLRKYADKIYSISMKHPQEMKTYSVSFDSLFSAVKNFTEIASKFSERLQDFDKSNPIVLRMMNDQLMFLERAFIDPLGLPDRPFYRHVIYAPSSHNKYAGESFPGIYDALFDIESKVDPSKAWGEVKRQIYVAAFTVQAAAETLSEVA

B1: 抗前列腺特异性膜抗原单域重链抗体噬菌体阳性克隆 (phage clone displaying the anti-PSMA single-domain heavy-chain antibody of SEQ ID NO: 1) (VHH)
VHH: QLQLVESGGGLVQAGGSLRLSCAASGRTFSRYAVGWFRQAPGKEREFVSGLSWTGSSTLYADSVKGRFTFSRDNAKKMVYLQMNTLMPEDTAVYYCAARKTRGKSYEYWGQGTQVTVSS
notes: VHH selected from a naive camelid phage display library; It was tested as a phage particle and detected with anti-M13 antibody, not as a purified protein; also called 针对前列腺特异性膜抗原的单域重链抗体阳性克隆; 展示本发明所述纳米抗体的噬菌体克隆; not shown: the phage coat protein fusion and any linker or tag are not described
B1: binds [1]; binds [2].
